Laboratory results: the supplement of paper PMC7877785
± gives the uncertainty stated by the source.

Experiment: self-splicing fitness, log relative to wild type (ln ratio); higher = more splicing; Tetrahymena group I intron in knt gene, E. coli kanamycin selection, DiMSum; sequences stand for … in CUCUCU…GGAGGGAAAAGUUAUCAGGCAUGCACCUGGUAGCUAGUCUUUAAACCAAUAGAUUGCAUCGGUUUAAAAGGCAAGACCGUCAAAUUGCGGGAAAGGGGUCAACAGCCGUUCAGUACCAAGUCUCAGGGGAAACUUUGAGAUGGCCUUGCAAAGGGUAUGGUAAUAAGCUGACGGACAUGGUCCUAACCACGCAGCCAAGUCCUAAGUCAACAGAUCUUCUGUUGAUAUGGAUGCAGUUCACAGACUAAAUGUCGGUCGGGGAAGAUGUAUUCUUCUCAUAAGAUAUAGUCGGACCUCUCCUUAAUGGGAGCUAGCGGAUGAAGUGAUGCAACACUGGAGCCGCUGGGAACUAAUUUGUAUGCGAAAGUAUAUUGAUUAGUUUUGGAGUACUCGUGGUCG
How it was run: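 Six replicate transformations of E. coli BL21(DE3) with a pET-22b(+) library were grown overnight at 37°C or 30°C. The library randomised all eight P1ex-region intron nucleotides, the intron lying in the knt kanamycin-resistance gene, and plates were LB agar with or without 25 μg/mL kanamycin plus 100 μg/mL carbenicillin, 50 μM IPTG and 0.2% rhamnose. Pooled colonies were amplicon-sequenced on an Illumina HiSeq 2500, and fitness is the DiMSum error-weighted combination of wild-type-normalised replicate fold changes, kanamycin versus none.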

Row | Sequence | self-splicing fitness (ln) (30 °C) | self-splicing fitness (ln) (37 °C)
1 | AUGUAGCAAUAUUACGUCCU | -0.674 ± 0.13 | 0.252 ± 0.19
2 | AUGUAGCAAUAUUACGUGAU | -1.52 ± 0.082 | -0.75 ± 0.11
3 | AUGUAGCAAUAUUACGUUAG | -1.89 ± 0.22 | -2.97 ± 0.4
4 | AUUAAGCAAUAUUACGAAAU | -1.35 ± 0.13 | -1.44 ± 0.18
5 | AUUAAGCAAUAUUACGACCA | -0.395 ± 0.2 | -0.571 ± 0.25
6 | AUUAAGCAAUAUUACGAUAG | -3.89 ± 0.37 | -2.55 ± 0.31
7 | AUUAAGCAAUAUUACGAUUA | -0.777 ± 0.13 | -0.308 ± 0.13
8 | AUUAAGCAAUAUUACGCAUC | -3.36 ± 0.31 | -1.24 ± 0.25
9 | AUUAAGCAAUAUUACGCCUG | -0.765 ± 0.15 | -0.543 ± 0.17
10 | AUUAAGCAAUAUUACGGCCU | -0.548 ± 0.1 | -0.318 ± 0.12
11 | AUUAAGCAAUAUUACGGCGA | -0.67 ± 0.12 | -0.121 ± 0.14
12 | AUUAAGCAAUAUUACGGCUU | -0.718 ± 0.088 | 0.207 ± 0.12
13 | AUUAAGCAAUAUUACGGGUU | -2.34 ± 0.23 | -2.92 ± 0.38
14 | AUUAAGCAAUAUUACGGUAA | -1.64 ± 0.12 | -1.33 ± 0.11
15 | AUUAAGCAAUAUUACGGUAU | -1.01 ± 0.11 | -1.2 ± 0.14
16 | AUUAAGCAAUAUUACGUACG | -1.15 ± 0.13 | -0.777 ± 0.14
17 | AUUAAGCAAUAUUACGUAGG | -2.34 ± 0.18 | -1.81 ± 0.29
18 | AUUAAGCAAUAUUACGUCCU | -0.24 ± 0.097 | 0.264 ± 0.12
19 | AUUAAGCAAUAUUACGUCGC | -3.33 ± 0.22 | -2.8 ± 0.25

Row | Sequence | self-splicing fitness (ln) (30 °C) | self-splicing fitness (ln) (37 °C)
20 | AUUAAGCAAUAUUACGUUAG | -2.76 ± 0.23 | -3.12 ± 0.27
21 | AUUAAGCAAUAUUACGUUGU | -1.98 ± 0.21 | -2.8 ± 0.32
22 | AUUCAGCAAUAUUACGACCU | -0.21 ± 0.095 | 0.317 ± 0.12
23 | AUUCAGCAAUAUUACGAGGC | -3.49 ± 0.19 | -1.51 ± 0.19
24 | AUUCAGCAAUAUUACGAGUA | -1.81 ± 0.2 | -1.24 ± 0.18
25 | AUUCAGCAAUAUUACGCAAG | -1.26 ± 0.098 | -0.884 ± 0.13
26 | AUUCAGCAAUAUUACGCCAU | -1.46 ± 0.1 | -1.09 ± 0.1
27 | AUUCAGCAAUAUUACGCCCA | -1.11 ± 0.18 | -0.0785 ± 0.23
28 | AUUCAGCAAUAUUACGCGAC | -2.38 ± 0.23 | -0.937 ± 0.18
29 | AUUCAGCAAUAUUACGCUAU | -1.45 ± 0.079 | -0.637 ± 0.1
30 | AUUCAGCAAUAUUACGCUGC | -2.3 ± 0.13 | -2.35 ± 0.19
31 | AUUCAGCAAUAUUACGCUUC | -2.28 ± 0.15 | -1.76 ± 0.18
32 | AUUCAGCAAUAUUACGGACA | -0.904 ± 0.078 | -0.744 ± 0.095
33 | AUUCAGCAAUAUUACGGACC | -0.601 ± 0.1 | 0.355 ± 0.15
34 | AUUCAGCAAUAUUACGGACG | -0.626 ± 0.08 | -0.168 ± 0.098
35 | AUUCAGCAAUAUUACGGGGC | -3.25 ± 0.3 | -2.99 ± 0.21
36 | AUUCAGCAAUAUUACGGUGA | -0.556 ± 0.097 | -0.526 ± 0.086
37 | AUUCAGCAAUAUUACGUUAA | -1.62 ± 0.12 | -0.923 ± 0.1
